Results as given in US10591466B2, “In vitro blood-brain barrier model” (priority 2014, dated 2020).
Several values for one entry are separate records, joined by “and”; a condition that tells them apart may be missing. Identical values can stand only once. Entries after “also recorded” stand apart in the source; their conditions may differ. Like-named read-outs stand apart in the source and are kept apart here.

B1: VHH A12: alpaca VHH with the sequence of SEQ ID NO:3, selected from an immune library; does not recognize any human brain protein (protein)
VHH: EVQLQASGGGLAQPGGSLRLSVTVSGSIDVINNMAWYRQAPGNARELVATITSGFSTNYASSVKGRFTISRDNAKKAVYLQMNSLKPEDTADYYSKVHLIRLGAARAYDYWGQGTQVTVS

Legend:
[1] = Isoelectric point (pI) of VHH / VHH-comprising polypeptide; assay type: physicochemical
[2] = system: human brain extract (Sg tau 4697); assay: Western blotting of VHH on human brain extract; assay type: binding; conditions: VHH 1 μg/ml
Experimental: (§1) The specificity of the VHH of the invention (A12) as compared to a control VHH recognizing brain proteins (H8/E9, identical to VHH E9, Perruchini et al.) was determined by western blotting on 3 different antigens: a human brain extract (Sg tau 4697), a mouse brain extract (Tg 4510) and on a purified protein, GFAP, a specific marker of astrocytes. […] Furthermore, VHH immunohistochemistry was performed from Tg4510 mouse tissues (Grueninger et al, 2010) harbouring NFTs. […] For western blotting, first we performed a polyacrylamide gel electrophoresis at 200 V for 45 min. Then we transferred proteins from gel to nitrocellulose membrane during 1H at 30 V. We saturated nitrocellulose membrane with PBS milk 2% for 1H under stirring. The membrane was then incubated for 1H with selected VHH diluted at 1 μg/ml in PBS milk 2%, and washed 3 times 5 min with PBS Tween. A secondary mouse mAb C23-21 recognizing Strep-tag (DI 2012-32 High-affinity monoclonal anti-Strep-Tag antibody C23.21; Girard-blanc C., Krey T., Vasiliauskaite ieva, Nato F., Lafaye P., Dartevelle S., Rey F.) was added at 1:2500 and incubated 1H at 37° C. Then after additional washes, an anti-mouse mAb labelled with peroxidase was added for 1 H. Three washes of 5 min in PBS Tween were performed.

[3] = system: mouse brain extract (Tg 4510); assay: Western blotting of VHH on mouse brain extract; assay type: binding; conditions: VHH 1 μg/ml
Experimental: as §1

[4] = system: Tg 4510 mouse brain tissue; assay: Immunohistochemistry on Tg 4510 mouse brain sections; assay type: binding; conditions: Tg 4510 paraffin-embedded mouse brain sections
Experimental: as §1

[5] = molecular target: GFAP (glial fibrillary astrocytic protein) (Homo sapiens, UniProt P14136); assay: Western blotting of VHH on purified GFAP; assay type: binding; conditions: VHH 1 μg/ml
GFAP (glial fibrillary astrocytic protein), sequence (P14136 whole entry, species assumed): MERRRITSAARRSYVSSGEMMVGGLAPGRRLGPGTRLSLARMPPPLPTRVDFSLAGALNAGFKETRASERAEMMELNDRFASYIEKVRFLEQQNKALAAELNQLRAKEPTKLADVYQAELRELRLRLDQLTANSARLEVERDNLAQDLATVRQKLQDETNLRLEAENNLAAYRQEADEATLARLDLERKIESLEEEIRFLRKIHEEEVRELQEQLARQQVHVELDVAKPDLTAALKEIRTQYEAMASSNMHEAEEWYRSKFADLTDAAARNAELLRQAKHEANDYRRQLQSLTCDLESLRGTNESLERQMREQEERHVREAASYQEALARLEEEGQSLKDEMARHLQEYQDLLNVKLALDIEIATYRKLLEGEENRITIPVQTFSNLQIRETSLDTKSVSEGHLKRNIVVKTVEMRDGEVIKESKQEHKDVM
Experimental: as §1

Row | Molecule | isoelectric point (pI) [1] | reactivity by western blotting against human brain extract [2] | reactivity by western blotting against human brain extract ([2]; listed as VHH A2) | reactivity by western blotting against mouse brain extract [3] | reactivity by western blotting against mouse brain extract ([3]; listed as VHH A2) | isoelectric point (pI) ([1]; listed as SEQ ID NO:3) | immunoreactivity / labelling by immunohistochemistry [4] | reactivity by western blotting against GFAP [5] | reactivity by western blotting against GFAP ([5]; listed as VHH A2)
1 | RRVNRSEPTQHNLRGTGREVSVTPQSGKIISSWEVHGQQTRL [Neurovita 3] | basic | – | – | – | – | – | – | – | –
2 | B1 | 9.78 and > 8.5 and 9.86 | does not recognize any human brain protein; also recorded: no reactivity; also recorded: not to recognize any brain protein | no bands were detected | no reactivity; also recorded: not to recognize any brain protein | no bands were detected | > 9 | no immunoreactivity; also recorded: no labelling was observed; also recorded: not to recognize any brain protein | no reactivity; also recorded: not to recognize any brain protein | no bands were detected
